Source: article PMC5567573, “Identification, heterologous expression and characterization of a dye-decolorizing peroxidase of Pleurotus sapidus” (AMB Express, 2017)

Key:
Experiment in all cases: purified protein
purified protein [1] = substrate: COc1cccc(OC)c1O; type: biochemical, Pleurotus sapidus; settings: H2O2 62.5 µM, pH 4.5, 50 mM sodium acetate, 30 °C, 1.8 nM enzyme
purified protein [2] = substrate: CCn1c(=NN=c2sc3cc(S(=O)(=O)O)ccc3n2CC)sc2cc(S(=O)(=O)O)ccc21; type: biochemical, Pleurotus sapidus; settings: H2O2 125 µM, pH 3.8, 100 mM sodium acetate, 30 °C, 0.27 nM enzyme
purified protein [3] = substrate: COc1ccccc1O; settings: H2O2 62.5 µM, pH 4.5, 50 mM sodium acetate, 30 °C, 4.5 nM enzyme

B1: rPsaDyP (recombinant DyP-type peroxidase of Pleurotus sapidus) (Pleurotus sapidus) (protein)
chain: ATNGTFLPLEEIQGDIMIGMRKPKEIFFFYSLQNPRKFKSVLAKLIYPHITTTAQMVCTTCAQPSAMLNVAWTSQGLRKLGVLDNLGDPYFAMGQLSDAAALGDTDPSTTWAPGLYANKTDGAFLIAAKDWEPIDTLLNQMKAWLGDAIVETHSNRGAVRPGDAAGKEHFGWLDGFIQPAVAGFATSTYPGQQLLLPGTLLTKEIGDPRRAARPAWTKWGSFMAYRQLQELVPEFDDYLMQEAALIQDSSRSVRERADLLGARMFGRWKSGTPLDLAPEKDDPSIGPNLMLNNNFDFNHPAPFNINTNQSYCPFSAHIRKIRPRADQGNQNLKNQMIRASIPYGEELSDDEINNKKTGTERGVAFVTYQSDLGSGFHFQQAEWANNVNIPTGKSDPTPGFDPIVGQNSGKPLVVSGIDYTDLNHDLTFMSFVVSKGGDYFFSPSMSAILHKIAA
- Km (purified protein [1]): 1227 µM
- Vmax (purified protein [1]): 6.6 µM/min
- kcat (purified protein [1]): 60 s⁻¹
- kcat/Km (purified protein [1]): 49000 M⁻¹ s⁻¹
- Km (purified protein [2]): 99 µM
- Vmax (purified protein [2]): 6 µM/min
- kcat (purified protein [2]): 375 s⁻¹
- kcat/Km (purified protein [2]): 3.8e+06 M⁻¹ s⁻¹
- Km (purified protein [3]): 713 µM
- Vmax (purified protein [3]): 21 µM/min
- kcat (purified protein [3]): 74 s⁻¹
- kcat/Km (purified protein [3]): 100000 M⁻¹ s⁻¹
